{"source": "paper PMC2756588"}
{"target": "T1, Abp1, P15891", "T1 sequence (P15891 535-592, looked up)": "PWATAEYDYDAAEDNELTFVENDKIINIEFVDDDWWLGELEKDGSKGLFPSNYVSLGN", "experiment": "SPOT array", "details": "median of control spots 935"}
{"binder": "SAPDIPPRSPNRNAH", "SPOT intensity": 8}
{"binder": "QRIRKIPGIPLMSVG", "SPOT intensity": 110}
{"binder": "SSTPTTPERPKRKSG", "SPOT intensity": 22}
{"target": "T2, Bbc1, P47068", "T2 sequence (P47068 1-78, looked up)": "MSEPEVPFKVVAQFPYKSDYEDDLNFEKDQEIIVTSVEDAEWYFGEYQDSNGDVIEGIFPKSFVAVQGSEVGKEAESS", "experiment": "SPOT array", "details": "median of control spots 796"}
{"binder": "SAPDIPPRSPNRNAH", "SPOT intensity": 1}
{"binder": "QRIRKIPGIPLMSVG", "SPOT intensity": 16}
{"binder": "SSTPTTPERPKRKSG", "SPOT intensity": 559}
{"target": "Bem1-1, P29366", "sequence (P29366 55-141)": "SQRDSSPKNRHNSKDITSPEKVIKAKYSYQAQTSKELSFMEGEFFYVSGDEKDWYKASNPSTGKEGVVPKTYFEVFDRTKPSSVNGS", "experiment": "SPOT array", "details": "median of control spots 4282"}
{"binder": "SAPDIPPRSPNRNAH", "SPOT intensity": 0}
{"binder": "QRIRKIPGIPLMSVG", "SPOT intensity": 0}
{"binder": "SSTPTTPERPKRKSG", "SPOT intensity": 1}
{"target": "Bem1-2, P29366", "sequence (P29366 139-227)": "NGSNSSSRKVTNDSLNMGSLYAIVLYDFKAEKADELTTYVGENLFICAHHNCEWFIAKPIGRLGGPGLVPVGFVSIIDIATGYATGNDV", "experiment": "SPOT array", "details": "median of control spots 4347"}
{"binder": "SAPDIPPRSPNRNAH", "SPOT intensity": 0}
{"binder": "QRIRKIPGIPLMSVG", "SPOT intensity": 0}
{"binder": "SSTPTTPERPKRKSG", "SPOT intensity": 0}
{"target": "T3, Boi1, P38041", "T3 sequence (P38041 1-86, looked up)": "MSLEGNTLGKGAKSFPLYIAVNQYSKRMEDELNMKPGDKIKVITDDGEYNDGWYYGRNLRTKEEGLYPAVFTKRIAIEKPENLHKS", "experiment": "SPOT array", "details": "median of control spots 1162"}
{"binder": "SAPDIPPRSPNRNAH", "SPOT intensity": 240}
{"binder": "QRIRKIPGIPLMSVG", "SPOT intensity": 0}
{"binder": "SSTPTTPERPKRKSG", "SPOT intensity": 0}
{"target": "T4, Boi2, P39969", "T4 sequence (P39969 32-116, looked up)": "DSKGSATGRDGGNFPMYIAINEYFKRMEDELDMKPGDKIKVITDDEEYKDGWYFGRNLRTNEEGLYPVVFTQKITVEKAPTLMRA", "experiment": "SPOT array", "details": "median of control spots 1161"}
{"binder": "SAPDIPPRSPNRNAH", "SPOT intensity": 312}
{"binder": "QRIRKIPGIPLMSVG", "SPOT intensity": 0}
{"binder": "SSTPTTPERPKRKSG", "SPOT intensity": 2}
{"target": "T5, Bud14, P27637", "T5 sequence (P27637 247-328, looked up)": "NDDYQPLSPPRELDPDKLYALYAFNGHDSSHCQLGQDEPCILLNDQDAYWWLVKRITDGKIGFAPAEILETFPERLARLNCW", "experiment": "SPOT array", "details": "median of control spots 956"}
{"binder": "SAPDIPPRSPNRNAH", "SPOT intensity": 2}
{"binder": "QRIRKIPGIPLMSVG", "SPOT intensity": 9}
{"binder": "SSTPTTPERPKRKSG", "SPOT intensity": 0}
{"target": "T6, Bzz1-1, P38822", "T6 sequence (P38822 478-572, looked up)": "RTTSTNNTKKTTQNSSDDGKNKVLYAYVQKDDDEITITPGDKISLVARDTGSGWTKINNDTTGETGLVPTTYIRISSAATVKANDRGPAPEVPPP", "experiment": "SPOT array", "details": "median of control spots 4446"}
{"binder": "SAPDIPPRSPNRNAH", "SPOT intensity": 0}
{"binder": "QRIRKIPGIPLMSVG", "SPOT intensity": 0}
{"binder": "SSTPTTPERPKRKSG", "SPOT intensity": 1}
{"target": "T7, Bzz1-2, P38822", "T7 sequence (P38822 568-633, looked up)": "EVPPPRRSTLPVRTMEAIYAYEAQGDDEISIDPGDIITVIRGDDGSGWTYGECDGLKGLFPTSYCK", "experiment": "SPOT array", "details": "median of control spots 4538"}
{"binder": "SAPDIPPRSPNRNAH", "SPOT intensity": 0}
{"binder": "QRIRKIPGIPLMSVG", "SPOT intensity": 13}
{"binder": "SSTPTTPERPKRKSG", "SPOT intensity": 1}
{"target": "T8, Cdc25, P04821", "T8 sequence (P04821 50-136, looked up)": "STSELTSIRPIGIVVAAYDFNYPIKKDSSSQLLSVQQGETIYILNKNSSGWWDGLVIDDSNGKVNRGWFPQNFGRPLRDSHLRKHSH", "experiment": "SPOT array", "details": "median of control spots 969"}
{"binder": "SAPDIPPRSPNRNAH", "SPOT intensity": 0}
{"binder": "QRIRKIPGIPLMSVG", "SPOT intensity": 2}
{"binder": "SSTPTTPERPKRKSG", "SPOT intensity": 1}
{"target": "T9, Cyk3, Q07533", "T9 sequence (Q07533 1-83, looked up)": "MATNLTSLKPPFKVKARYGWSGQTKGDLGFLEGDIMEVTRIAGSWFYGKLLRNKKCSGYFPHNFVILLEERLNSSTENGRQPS", "experiment": "SPOT array", "details": "median of control spots 1451"}
{"binder": "SAPDIPPRSPNRNAH", "SPOT intensity": 0}
{"binder": "QRIRKIPGIPLMSVG", "SPOT intensity": 2}
{"binder": "SSTPTTPERPKRKSG", "SPOT intensity": 1}
{"target": "T10, Fus1, P11710", "T10 sequence (P11710 432-512, looked up)": "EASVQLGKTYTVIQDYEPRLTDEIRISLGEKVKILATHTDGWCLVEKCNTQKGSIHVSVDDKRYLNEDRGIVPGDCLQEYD", "experiment": "SPOT array", "details": "median of control spots 1200"}
{"binder": "SAPDIPPRSPNRNAH", "SPOT intensity": 0}
{"binder": "QRIRKIPGIPLMSVG", "SPOT intensity": 6}
{"binder": "SSTPTTPERPKRKSG", "SPOT intensity": 0}
{"target": "GST", "experiment": "SPOT array", "details": "median of control spots 978"}
{"binder": "SAPDIPPRSPNRNAH", "SPOT intensity": 0}
{"binder": "QRIRKIPGIPLMSVG", "SPOT intensity": 0}
{"binder": "SSTPTTPERPKRKSG", "SPOT intensity": 2}
{"target": "T11, Hof1, Q05080", "T11 sequence (Q05080 590-669, looked up)": "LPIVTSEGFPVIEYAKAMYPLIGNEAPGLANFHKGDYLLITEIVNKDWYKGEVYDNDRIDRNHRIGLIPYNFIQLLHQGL", "experiment": "SPOT array", "details": "median of control spots 4086"}
{"binder": "SAPDIPPRSPNRNAH", "SPOT intensity": 0}
{"binder": "QRIRKIPGIPLMSVG", "SPOT intensity": 13}
{"binder": "SSTPTTPERPKRKSG", "SPOT intensity": 0}
{"target": "T12, Hse1, P38753", "T12 sequence (P38753 208-285, looked up)": "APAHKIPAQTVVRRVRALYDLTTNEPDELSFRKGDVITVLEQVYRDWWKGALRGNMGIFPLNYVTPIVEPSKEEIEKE", "experiment": "SPOT array", "details": "median of control spots 1727"}
{"binder": "SAPDIPPRSPNRNAH", "SPOT intensity": 0}
{"binder": "QRIRKIPGIPLMSVG", "SPOT intensity": 7}
{"binder": "SSTPTTPERPKRKSG", "SPOT intensity": 0}
{"target": "T13, Lsb1, P53281", "T13 sequence (P53281 45-122, looked up)": "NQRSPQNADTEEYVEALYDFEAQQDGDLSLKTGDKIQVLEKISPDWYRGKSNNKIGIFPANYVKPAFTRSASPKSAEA", "experiment": "SPOT array", "details": "median of control spots 388"}
{"binder": "SAPDIPPRSPNRNAH", "SPOT intensity": 857}
{"binder": "QRIRKIPGIPLMSVG", "SPOT intensity": 78}
{"binder": "SSTPTTPERPKRKSG", "SPOT intensity": 316}
{"target": "T14, Lsb3, P43603", "T14 sequence (P43603 385-451, looked up)": "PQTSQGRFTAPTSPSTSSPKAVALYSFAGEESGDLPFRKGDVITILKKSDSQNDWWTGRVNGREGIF", "experiment": "SPOT array", "details": "median of control spots 406"}
{"binder": "SAPDIPPRSPNRNAH", "SPOT intensity": 207}
{"binder": "QRIRKIPGIPLMSVG", "SPOT intensity": 51}
{"binder": "SSTPTTPERPKRKSG", "SPOT intensity": 442}
{"target": "T15, Lsb4, P32793", "T15 sequence (P32793 402-468, looked up)": "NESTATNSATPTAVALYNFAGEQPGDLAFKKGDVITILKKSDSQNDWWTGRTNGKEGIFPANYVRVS", "experiment": "SPOT array", "details": "median of control spots 397"}
{"binder": "SAPDIPPRSPNRNAH", "SPOT intensity": 145}
{"binder": "QRIRKIPGIPLMSVG", "SPOT intensity": 24}
{"binder": "SSTPTTPERPKRKSG", "SPOT intensity": 363}
{"target": "Myo3, P36006", "experiment": "SPOT array", "details": "median of control spots 468"}
{"binder": "SAPDIPPRSPNRNAH", "SPOT intensity": 0}
{"binder": "QRIRKIPGIPLMSVG", "SPOT intensity": 28}
{"binder": "SSTPTTPERPKRKSG", "SPOT intensity": 0}
{"target": "T16, Myo5, Q04439", "T16 sequence (Q04439 1072-1160, looked up)": "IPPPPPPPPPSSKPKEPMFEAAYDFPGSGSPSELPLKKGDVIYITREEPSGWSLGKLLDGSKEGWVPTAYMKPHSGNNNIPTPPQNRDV", "experiment": "SPOT array", "details": "median of control spots 471"}
{"binder": "SAPDIPPRSPNRNAH", "SPOT intensity": 0}
{"binder": "QRIRKIPGIPLMSVG", "SPOT intensity": 7}
{"binder": "SSTPTTPERPKRKSG", "SPOT intensity": 0}
{"target": "T17, Nbp2, Q12163", "T17 sequence (Q12163 103-180, looked up)": "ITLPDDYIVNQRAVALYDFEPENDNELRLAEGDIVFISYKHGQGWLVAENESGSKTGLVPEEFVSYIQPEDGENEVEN", "experiment": "SPOT array", "details": "median of control spots 357"}
{"binder": "SAPDIPPRSPNRNAH", "SPOT intensity": 0}
{"binder": "QRIRKIPGIPLMSVG", "SPOT intensity": 5}
{"binder": "SSTPTTPERPKRKSG", "SPOT intensity": 0}
{"target": "T18, Pex13, P80667", "T18 sequence (P80667 295-386, looked up)": "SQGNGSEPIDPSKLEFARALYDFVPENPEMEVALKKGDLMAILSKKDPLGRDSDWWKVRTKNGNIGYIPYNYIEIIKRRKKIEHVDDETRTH", "experiment": "SPOT array", "details": "median of control spots 1341"}
{"binder": "SAPDIPPRSPNRNAH", "SPOT intensity": 21}
{"binder": "QRIRKIPGIPLMSVG", "SPOT intensity": 90}
{"binder": "SSTPTTPERPKRKSG", "SPOT intensity": 8}
{"target": "T19, Pin3, Q06449", "T19 sequence (Q06449 53-122, looked up)": "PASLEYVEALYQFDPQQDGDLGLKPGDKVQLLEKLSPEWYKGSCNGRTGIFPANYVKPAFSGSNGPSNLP", "experiment": "SPOT array", "details": "median of control spots 2171"}
{"binder": "SAPDIPPRSPNRNAH", "SPOT intensity": 4}
{"binder": "QRIRKIPGIPLMSVG", "SPOT intensity": 71}
{"binder": "SSTPTTPERPKRKSG", "SPOT intensity": 6}
{"target": "Rvs167, P39743", "sequence (P39743 419-482)": "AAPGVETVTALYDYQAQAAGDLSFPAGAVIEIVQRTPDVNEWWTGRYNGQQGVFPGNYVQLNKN", "experiment": "SPOT array", "details": "median of control spots 2707"}
{"binder": "SAPDIPPRSPNRNAH", "SPOT intensity": 816}
{"binder": "QRIRKIPGIPLMSVG", "SPOT intensity": 156}
{"binder": "SSTPTTPERPKRKSG", "SPOT intensity": 0}
{"target": "Sho1, P40073", "sequence (P40073 287-367)": "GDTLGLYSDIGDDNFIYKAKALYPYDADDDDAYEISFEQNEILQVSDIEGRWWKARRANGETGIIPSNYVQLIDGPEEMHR", "experiment": "SPOT array", "details": "median of control spots 1148"}
{"binder": "SAPDIPPRSPNRNAH", "SPOT intensity": 0}
{"binder": "QRIRKIPGIPLMSVG", "SPOT intensity": 42}
{"binder": "SSTPTTPERPKRKSG", "SPOT intensity": 0}
{"target": "T20, Sla1-2, P32790", "T20 sequence (P32790 60-140, looked up)": "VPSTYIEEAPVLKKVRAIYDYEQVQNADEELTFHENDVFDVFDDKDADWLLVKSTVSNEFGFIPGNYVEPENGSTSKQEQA", "experiment": "SPOT array", "details": "median of control spots 712"}
{"binder": "SAPDIPPRSPNRNAH", "SPOT intensity": 423}
{"binder": "QRIRKIPGIPLMSVG", "SPOT intensity": 4}
{"binder": "SSTPTTPERPKRKSG", "SPOT intensity": 0}
{"target": "T21, Sla1-3, P32790", "T21 sequence (P32790 344-424, looked up)": "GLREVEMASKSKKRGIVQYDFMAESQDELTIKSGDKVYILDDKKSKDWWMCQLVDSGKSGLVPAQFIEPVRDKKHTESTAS", "experiment": "SPOT array", "details": "median of control spots 5475"}
{"binder": "SAPDIPPRSPNRNAH", "SPOT intensity": 3}
{"binder": "QRIRKIPGIPLMSVG", "SPOT intensity": 8}
{"binder": "SSTPTTPERPKRKSG", "SPOT intensity": 0}
